# Test results published in patent US20040014134.
# Target: Fusion protein B (variant 2; rsGFP - cleavage site segment with TEV protease cleavage site - DsRed)
protein,measurement,value
TEV protease (protease from the tobacco etch virus) (protein) GESLFKGPRDYNPISSTICHLTNESDGHTTSLYGIGFGPFIITNKHLFRRNNGTLLVQSLHGVFKVKNTTTLQQHLIDGRDMIIIRMPKDFPPFPQKLKFREPQREERICLVTTNFQTKSMSSMVSDTSCTFPSSDGIFWKHWIQTKDGQCGSPLVSTRDGFIVGIHSASNFTNTNNYFTSVPKNFMELLTNQEAQQWVSGWRLNADSVLWGGHKVFMSKPEEPFQPVKEATQLMNELVYSQ,two-photon cross-correlation amplitude (dual-colour FCS protease cleavage assay),The cleavage of the bond and the consequent reduction of the proportion of double fluorescing molecules in the measurement solution cause the decrease of the cross-correlation amplitude.
